Changes are numbered by the printed parent chain. In names and notes the source's numbering stands.
T1: Vps4 (wild-type, yeast) (Saccharomyces cerevisiae, UniProt P52917 1-437, Cy5 maleimide (labelling efficiency 48%) in the single-molecule assay; unlabelled in the ATPase assay)
T1 sequence (looked up): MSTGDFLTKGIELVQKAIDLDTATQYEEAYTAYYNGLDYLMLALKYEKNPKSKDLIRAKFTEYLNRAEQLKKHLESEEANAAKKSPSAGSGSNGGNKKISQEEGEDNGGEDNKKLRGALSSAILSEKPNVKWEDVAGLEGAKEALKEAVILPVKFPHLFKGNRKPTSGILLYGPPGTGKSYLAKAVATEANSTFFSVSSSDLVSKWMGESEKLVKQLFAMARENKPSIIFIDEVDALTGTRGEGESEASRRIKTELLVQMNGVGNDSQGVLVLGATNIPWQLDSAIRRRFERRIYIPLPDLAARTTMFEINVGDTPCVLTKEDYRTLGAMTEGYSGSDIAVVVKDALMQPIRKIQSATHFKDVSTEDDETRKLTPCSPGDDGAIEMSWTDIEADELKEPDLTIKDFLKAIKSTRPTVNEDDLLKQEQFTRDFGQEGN

T2: Vps4^E233QC376S, Cy5-labelled (single-cysteine mutant) (Saccharomyces cerevisiae, UniProt P52917 1-437, E233Q | C376S, Cy5 maleimide on the single cysteine)
T2 construct: Vps4, Saccharomyces cerevisiae, with E233Q and C376S (only one cysteine left); source: E. coli BL21 (DE3), purified as for other mutant proteins, labelled with Cy5 maleimide
T2 sequence (looked up): T1 sequence (looked up) with E233Q, C376S

B1: Vps4^E233Q (full-length yeast Vps4 containing an E233Q mutation) (enzyme, Saccharomyces cerevisiae, UniProt P52917 1-437, looked up)
chain: T1 sequence (looked up) with E233Q
notes: Vps4 (vacuolar protein sorting 4), Saccharomyces cerevisiae, full length, with E233Q; Hexamer with ATP, dimer without ATP; written as the protomer because its self-association is what is measured; also called E233Q mutant; Vps4 E233Q mutant; source: E. coli BL21 (DE3), purified (Ni-NTA, apyrase treatment, SEC)
B2: Vps4 mutant E233QR325A (enzyme, Saccharomyces cerevisiae, UniProt P52917 1-437, looked up)
chain: T1 sequence (looked up) with E233Q, R325A
notes: Vps4, Saccharomyces cerevisiae, with E233Q and R325A; also called E233QR325A mutant; source: E. coli BL21 (DE3), purified (Ni-NTA, apyrase treatment, SEC)
B3: Vta1 (Vps twenty associated 1) (natural protein, Saccharomyces cerevisiae)
chain: MASNAARVVATAKDFDKVGLGIIGYYLQLYAVELILSEEDRSQEMTALATELLDTIEAFKKEIGGESEAEDSDKSLHVMNTLIHDQEKAKIYMLNFTMSLYNEKLKQLKDGPWDVMLKRSLWCCIDLFSCILHLWKENISETSTNSLQKRIKYCKIYLSKLAKGEIGSSDEKTLDYADFADDSEEIKDEDVDHQTSDLENNNNDKVEGLAPKDQTTSYEPVDEVPEFIDDADSVNEEEQTVDKNEDAITKDEQQVVKKEVDLTRPSAPSEPAAAEHKSYTKDELTKIMDRASKIEQIQKLAKYAISALNYEDLPTAKDELTKALDLLNSI
notes: Vta1, Saccharomyces cerevisiae, gene amplified from yeast genomic DNA; also called Vta1 dimer; source: E. coli BL21 (DE3), purified (Ni-NTA, apyrase treatment, SEC)
B4: Vta1^C124S154S, Cy3-labelled (single-cysteine mutant) (natural protein, Saccharomyces cerevisiae)
chain: B3 chain with C124S, C154S
modifications: Cy3 maleimide on the single cysteine
notes: Vta1, Saccharomyces cerevisiae, with C124S and C154S (only one cysteine left); source: E. coli BL21 (DE3), purified as for other mutant proteins, labelled with Cy3 maleimide

What was measured:
[1] = molecular target: the molecule itself; experiment: SEC-MALS; 200 ul of 5 mg/ml (50 uM) Vps4^E233Q preincubated with 1 mM ATP at 4 C for 1 h; Superdex 200 10/300 GL; assembly buffer (20 mM HEPES pH 7.5, 100 mM NaCl, 1 mM DTT, 2 mM MgCl2, 1 mM ATP)
[2] = molecular target: the molecule itself; experiment: SEC; oligomeric state without ATP (Supplementary Fig. 9)
[3] = molecular target: the molecule itself; experiment: SEC; oligomeric state with ATP: each mutant at 100 uM incubated with 1 mM ATP at 4 C for 1 h; Superdex 200 10/300 GL in assembly buffer
[4] = molecular target: the molecule itself; experiment: cryo-EM structure; ATP-bound Vps4^E233Q-Vta1 complex (1.5- to 2-fold molar excess of Vta1, 1 mM ATP, Superose 6), no glutaraldehyde; no symmetry imposed; 4.2 A
Vps4 (wild-type, yeast) = molecular target: T1, Vps4 (wild-type, yeast); experiment: cell-based or functional assay
[5] = molecular target: B1; experiment: SEC; Vps4 mutants at 5 uM with Vta1 at molar ratio 1:2, 1 mM ATP, 4 C, 1 h; Superose 6 10/300 GL in assembly buffer; conditions: both partners purified
[6] = molecular target: T2, Vps4^E233QC376S, Cy5-labelled …; experiment: fluorescence of two dyes in the SEC-separated complex; Cy5-Vps4 and Cy3-Vta1 single-cysteine mutants incubated at molar ratio 1:2 with ATP on ice 1 h, complex separated by SEC in assembly buffer; concentrations from standard curves of fluorescence; conditions: both partners purified

B1
stoichiometry N [1]: 6
stoichiometry N [2]: 2

B2
stoichiometry N [2]: 2
stoichiometry N [3]: 6

B3
binding result [4]: binds
ATPase activity (malachite green) of 1 uM wild-type Vps4 in the presence of Vta1 (Vps4 (wild-type, yeast)): 2 fold
binding result [5]: binds

B4
stoichiometry N [6]: 2.06 Vta1/Vps4^E233Q (molar ratio)

From PMC5520056, “Cryo-EM structures of the ATP-bound Vps4^E233Q hexamer and its complex with Vta1 at near-atomic resolution” (Nature Communications, 2017)
